Here are results for one substance from doi:10.1101/2020.08.13.249722.

In this test the target is …-Toyopearl (PTCH peptide, positive control). Description: equilibrium adsorption on peptide resin.

For “tandem WW domain of Yes-Associated Protein 1 (WW-YAP), soluble recombinant human protein (domain or fragment)”, the percent of the incubated protein bound is more than 73%.
